Measurements taken from patent US20040018530.
Read-outs that look alike come from different tables or passages of the source.

How the values were obtained:
[1] = tested on: IgE (immunoglobulin E, monoclonal, kappa light chain) (Homo sapiens); details: affinity capillary electrophoresis with LIF; PBS, 1 mM MgCl2, 40 mM NaCl, pH 8.0, 25 C
[2] = tested on: IgE (immunoglobulin E, monoclonal, kappa light chain) (Homo sapiens); details: affinity capillary electrophoresis with LIF; PBS, 1 mM MgCl2, 35 mM NaCl, pH 8.0, 25 C
[3] = tested on: IgE (immunoglobulin E, monoclonal, kappa light chain) (Homo sapiens); details: CE-UV binding assay up to 2.5 uM IgE; round 1 pool 33% bound; PBS, 1 mM MgCl2, pH 8.0, 25 C
[4] = tested on: IgE (immunoglobulin E, monoclonal, kappa light chain) (Homo sapiens); details: CE-UV binding assay up to 1.1 uM IgE; round 1 pool 67% bound; PBS, 1 mM MgCl2, pH 8.0, 25 C
[5] = tested on: IgE (immunoglobulin E, monoclonal, kappa light chain) (Homo sapiens); details: CE-UV binding assay; rounds 1, 2, 3 gave 62, 96, ~100% bound; PBS, 1 mM MgCl2, pH 8.0, 25 C
[6] = tested on: IgE (immunoglobulin E, monoclonal, kappa light chain) (Homo sapiens); details: affinity capillary electrophoresis with LIF; PBS, 1 mM MgCl2, pH 8.0, 25 C; literature value 10 nM; cited from earlier work

AGCAGCACAGAGGTCAGATGGATGGGGGGGTCTAACGTGCGATCTGCCGACTTTATCCTGCCTATGCGTGCTACCGTGAA [Clone 2.27]
Kd [1]: 0.052 µM

AGCAGCACAGAGGTCAGATGGTAATTTTCGCTGCGATTAGGCTTGTGACAAAATTACTATCCTATGCGTGCTACCGTGAA [Clone 1.8]
Kd [2]: 0.293 µM

AGCAGCACAGAGGTCAGATGNNNNNNNNNNNNNNNNNNNNNNNNNNNNNNNNNNNNNNNNCCTATGCGTGCTACCGTGAA [CE-SELEX experiment 1 round 2 enriched pool]
binding [3]: 100 % bound

AGCAGCACAGAGGTCAGATGNNNNNNNNNNNNNNNNNNNNNNNNNNNNNNNNNNNNNNNNCCTATGCGTGCTACCGTGAA [CE-SELEX experiment 2 round 2 enriched pool]
binding [4]: 100 % bound

AGCAGCACAGAGGTCAGATGNNNNNNNNNNNNNNNNNNNNNNNNNNNNNNNNNNNNNNNNCCTATGCGTGCTACCGTGAA [CE-SELEX experiment 3 round 4 enriched pool]
binding [5]: 100 % bound

CTACCTACGATCTGACTAGCGGGGCACGTTTATCCGTCCCTCCTAGTGGCGTGCCCCGCTTACTCTCATGTAGTTCC [conventional SELEX IgE aptamer]
Kd [6]: 0.004 µM
